PMC7525151, “Fumarase From Cyanidioschyzon merolae Stably Shows High Catalytic Activity for Fumarate Hydration Under High Temperature Conditions” (Frontiers in Microbiology, 2020)

Tested on: O=C(O)C[C@H](O)C(=O)O
Experiment: purified protein
Settings: L-malate dehydration
[1] = 100 mM Tris-HCl pH 8.5, 52 °C, pH 8.5
[2] = 100 mM Tris-HCl pH 7.5, 50 °C, pH 7.5

Sequence of TeFum (Thermosynechococcus vestitus BP-1) (chain, as listed by the source): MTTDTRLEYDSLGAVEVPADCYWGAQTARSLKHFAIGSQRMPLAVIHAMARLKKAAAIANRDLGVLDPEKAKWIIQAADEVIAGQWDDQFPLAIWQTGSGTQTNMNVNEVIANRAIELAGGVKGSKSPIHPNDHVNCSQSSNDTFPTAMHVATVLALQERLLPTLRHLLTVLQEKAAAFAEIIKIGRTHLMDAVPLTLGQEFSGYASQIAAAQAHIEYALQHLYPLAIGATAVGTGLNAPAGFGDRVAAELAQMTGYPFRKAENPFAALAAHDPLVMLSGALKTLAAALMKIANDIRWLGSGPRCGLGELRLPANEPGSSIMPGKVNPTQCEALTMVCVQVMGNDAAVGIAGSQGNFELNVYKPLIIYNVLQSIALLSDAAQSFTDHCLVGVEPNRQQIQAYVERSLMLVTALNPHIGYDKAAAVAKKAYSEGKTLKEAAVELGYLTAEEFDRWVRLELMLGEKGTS
Sequence of CmFUM (Cyanidioschyzon merolae strain 10D) (chain, as listed by the source): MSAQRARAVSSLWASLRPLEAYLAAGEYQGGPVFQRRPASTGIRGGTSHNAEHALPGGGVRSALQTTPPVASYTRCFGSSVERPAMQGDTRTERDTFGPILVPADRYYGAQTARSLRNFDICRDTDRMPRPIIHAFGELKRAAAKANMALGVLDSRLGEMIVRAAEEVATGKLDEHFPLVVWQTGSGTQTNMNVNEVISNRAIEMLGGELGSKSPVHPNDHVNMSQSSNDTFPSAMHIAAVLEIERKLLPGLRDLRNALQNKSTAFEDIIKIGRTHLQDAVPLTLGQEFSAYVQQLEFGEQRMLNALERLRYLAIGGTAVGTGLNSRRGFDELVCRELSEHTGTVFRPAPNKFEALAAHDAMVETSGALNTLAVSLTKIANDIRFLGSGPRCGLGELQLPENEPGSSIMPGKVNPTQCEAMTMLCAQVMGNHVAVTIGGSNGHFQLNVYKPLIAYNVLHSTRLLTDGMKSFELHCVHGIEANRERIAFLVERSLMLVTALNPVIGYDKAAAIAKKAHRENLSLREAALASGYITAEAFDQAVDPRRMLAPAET

| Substance | Km [1] [µM] | kcat [1] [s⁻¹] | kcat/Km [1] [M⁻¹ s⁻¹] | Km [2] [µM] | kcat [2] [s⁻¹] | kcat/Km [2] [M⁻¹ s⁻¹] |
| --- | --- | --- | --- | --- | --- | --- |
| CmFUM (Cyanidioschyzon merolae strain 10D) | 1490 ± 120 | 244 | 164000 | – | – | – |
| TeFum (Thermosynechococcus vestitus BP-1) | – | – | – | 200 ± 10 | 15 | 76000 |
